This note sets out measurements from the nanobody polyreactivity screen of Harvey et al. (2022).

The series is described as follows: yeast display, Sf9 membrane polyspecificity reagent, FACS + sequencing; frameworks hold sequencing errors. In outline: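 Galactose induction of a Saccharomyces cerevisiae BJ5465 synthetic nanobody display library ran 36–48 hours. The cells were then stained for 1 hour at 4 °C with 10% biotinylated, detergent-solubilized Sf9 membrane reagent, pulled down on streptavidin microbeads and FACS-sorted into low and high (top ~1%) gates on expression and reagent-binding fluorescence. Labels for polyreactivity follow the gate of origin.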
For the sequence “QVQLVESGGGLVQAGGSLRLSCAASGSTFKFNAMGWYRQAPGKEREFVAAITSSGDSTYYADSVKGRFTISRDNAKNTVYLQMNCLKPEDTAVYYCAAEFESSFALGFYYWGQGTEVTVSS”, the “polyreactivity (PSR sort gate)” value is listed as “high polyreactivity”. The value for “QVQLVESGGGLVQAGGSLRLSCAASGSTFKFYTMGWYRQAPGKERELVATIDWSGGSTYYADSVKGRFTISRDNAKNTVYLQMNSLKPEDTAVYYCAAYSRSRNTRLGKYYYWGQGTQVTVSS” was “high polyreactivity”.

For the sequence “QVQLVESGGGLVQAGGSLRLSCAASGSTFKFYTMGWYRQAPGKERELVATIDWSGGSTYYADSVKGRFTISRDNAKNTVYLQMNSLKPEDTAVYYCAAYSRSRTTRLGKYYYWGQGTQVTVSS”, the “polyreactivity (PSR sort gate)” value was “high polyreactivity”. The entry for “QVQLVESGGGLVQAGGSLRLSCAASGSTFKGNAMGWYRQAPGKERELVAAINRSGTSTYYADSVKGRFTISRDNAKNTVYLQMNSLKPEDTAVYYCAADKAPYSTEGDSWGQGTQVTVSS” is “high polyreactivity”. Take “QVQLVESGGGLVQAGGSLRLSCAASGSTFKIYAMGWYRQAPGKERELVARITGRGGSTYYADSVKGRFTISRDNAKNTVYLQMNSLKPEDTAVYYCAARVYTYYYDLHKRYYWGQGTQVTVSS”: the “polyreactivity (PSR sort gate)” value is recorded as “high polyreactivity”. The entry for “QVQLVESGGGLVQAGGSLRLSCAASGSTFKKYAMGWYRQAPGKERELVAAITGSGGRTYYADSVKGRFTISRDTAKNTVYLQMNSLKPEDTAVYYCANLNNYGYDYWGQGTQVTVSS” is “high polyreactivity”.

Turning to “QVQLVESGGGLVQAGGSLRLSCAASGSTFKNNAMGWYRQATGKEREFVAGITRRGTSTYYADSVKGRFTISRDNAKNTVYLQMNSLKPEDTAVYYCAVGVYDYTGTYGYWGQGTQVTVSS”, the “polyreactivity (PSR sort gate)” value was “high polyreactivity”.

Take “QVQLVESGGGLVQAGGSLRLSCAASGSTFKPNAMGWSRQAPGKERELVAAINGSGGDTYYADSVKGRFTISRDYANNTFYLQMNSLKPEDTAVYYCAAQWGYYNYWYGYWGQGTQVTVSS”: the “polyreactivity (PSR sort gate)” value is recorded as “low polyreactivity”. The value for “QVQLVESGGGLVQAGGSLRLSCAASGSTFKPNAMGWYRQAPGKERELVAAITSGSTYYADSVKGRFTISRDNAKNTVYLQMNSLKPEDTAVYYCAVVTGSFRTRYTYYYWGQGTQVTVSS” was “high polyreactivity”. As to “QVQLVESGGGLVQAGGSLRLSCAASGSTFKPYTMGWYRPAPGKERELVAAISSVDSTYYADSVKGRFTISRDNAKKTVYLQMNSLKPEDTAVYDCNKRKSPTFTYAMNYWGQGTQGTVSS”, the “polyreactivity (PSR sort gate)” value is reported as “low polyreactivity”. The entry for “QVQLVESGGGLVQAGGSLRLSCAASGSTFKRYAMGWYRQAPGKERALVASISSGGSTNYADSVKGRFTISRDNAKNTVYLQMHSLKPEDTAVYYCAVSYRSFRYYWERYYSWGQGTQVTVSS” is “high polyreactivity”. The value for “QVQLVESGGGLVQAGGSLRLSCAASGSTFKRYTMGWYRQAPGKERELVARISWGGSTTYYAYSVKGRFTISRDNAKNTVYLQMNSLKPEDTAVYYCAASWSWYGNRGTYRYPPRYDYWGQGTQVTVSS” was “high polyreactivity”.

Take “QVQLVESGGGLVQAGGSLRLSCAASGSTFKSYAMGWYRQAPGKERELVAAITHRGSTYYADSVKGRFTISRDNAKNTVYLQMNSLKPEDTAVYYCNVRRIGNGRRVDYWGQGTQVTVSS”: the “polyreactivity (PSR sort gate)” value is recorded as “high polyreactivity”. The value for “QVQLVESGGGLVQAGGSLRLSCAASGSTFKTYVMGWYRQAPGKERELVAGISDSGGTTYYADSVKGRFTISRDNAKNTVYLQMNSLKPEDTAGYYCAAVLYRRYTRARLDYWGQGTQVTVSS” was “high polyreactivity”. Consider “QVQLVESGGGLVQAGGSLRLSCAASGSTFKVNAMGWYRQAAGKEREFVAAITKNGGRTYYADSVKGRFTISRDYAKNTVYLQMNSLKPEDTAVYYCAARLYLPIIVVDLYGYDYWGQGTQVTVSS”, for which the “polyreactivity (PSR sort gate)” value is listed as “low polyreactivity”.

Take “QVQLVESGGGLVQAGGSLRLSCAASGSTFKVNAMGWYRQAPGKERELVAAISRGGSTYADSVKGRFTISRDNAKNTVYLQMNSLKPEDTAVYYCAAKSRYFQPDEYYYWGQVTQVTVSS”: the “polyreactivity (PSR sort gate)” value is “high polyreactivity”.

For the sequence “QVQLVESGGGLVQAGGSLRLSCAASGSTFKVNVMGCYRKAPVKERELVAAINQSVRGTYYADSVKGRFTISRDNAKNTVYLQMNSLKPEDTAVYYCAAKIIVLRYVLSQEQRRYNYWGQGTQVTVSS”, the “polyreactivity (PSR sort gate)” value was “low polyreactivity”.

As for “QVQLVESGGGLVQAGGSLRLSCAASGSTFKVYAIGWYRQAPGKERELVAGISSGGNTNYADSVKGRFTISRDNAKNTVYLQMNSLKPEDTAVYYCNTDWYLPRYVLLGYFSGTEDYWGQGTQVTVSS”, the “polyreactivity (PSR sort gate)” value was “low polyreactivity”. The entry for “QVQLVESGGGLVQAGGSLRLSCAASGSTFKVYAMGWYRQAPGKERELVAAISRSGGRTYYADSVKGRFTISRDNEKNTVYLQMNSLKPEDTAVYYCNSDYTYSQGHYSGSYDYWGQGSQVTVSS” is “high polyreactivity”.

As to “QVQLVESGGGLVQAGGSLRLSCAASGSTFKVYTMGWYRPAPGKERELVAAISGGGGSTYYADSVKGRFTISRDNAKNTVYLQMNSLNPEDTAVYYCAAQKRGPGYPYYYWGQGTQVTVSS”, the “polyreactivity (PSR sort gate)” value is on record as “high polyreactivity”. The value for “QVQLVESGGGLVQAGGSLRLSCAASGSTFKYNAMGWSRQAPGKERELVASISRSGGSTYYADSVKGRFTISRDNAKNTVYLQMNSQKPEDTAVYYCNVRRFVHYEYWGQGTQVTVSS” was “high polyreactivity”; that for “QVQLVESGGGLVQAGGSLRLSCAASGSTFKYYAMGWYRQAPAKERELVAAISARTGSTYYADSVKGRFTISRDNAKNTVYLQMNRLKPEDTAVYYCNKLTWRGEVDYWGQGTQVTVSS” was “high polyreactivity”. The entry for “QVQLVESGGGLVQAGGSLRLSCAASGSTFKYYAMGWYRQAPGKERELVAAISRRGGSTYYADSVKGRFTISRDNAKNTVYLQMNSLKPEDTAVYYCAARLPGYYGIGDYWGQGTQVTVSS” is “high polyreactivity”; for “QVQLVESGGGLVQAGGSLRLSCAASGSTFKYYAMGWYRQATGKERELLAAITWRGGSTYYADSVKGRFTISRDNAKNSVYLLMKSLKPEDTAVYYCARQRYYGLRTLMEHWGQGTQVTVSS” it is “high polyreactivity”. The entry for “QVQLVESGGGLVQAGGSLRLSCAASGSTFKYYTMGWYRQAPGKERELVAAITSGGSTNYADSVKGRFTISRDNAKNTVYLQMNSLNPEDTAVYYCAAGGRRFYVGVIYDYWGQGNQVTVSS” is “high polyreactivity”; for “QVQLVESGGGLVQAGGSLRLSCAASGSTFLDNAMGWYRQAPGKERELVAAITQSGSSTYYADSVKGRFTISRDNAKNTVYLQMNSLKPEDTAVYYCAADVPNISFDYWGQGTQVTVSS” it is “low polyreactivity”.

For “QVQLVESGGGLVQAGGSLRLSCAASGSTFLDYAMGWYRQAPGKERELVAAITSGGSTYYADSVKGRFTISRDNAKNTVYLQMNSLKPEDTAVYYCAAEQTQLYSFGWDEYWGQGTQVTVSS”, the “polyreactivity (PSR sort gate)” value is reported as “low polyreactivity”. Take “QVQLVESGGGLVQAGGSLRLSCAASGSTFLDYDMGWYRQAPGKERELVATINSVGSTYYADSVKGRFTISRDNAKNTVYLQMNSLKPEDTAVYYCAARQEPGWYPDVWWEYDYWGQGTQVTVSS”: the “polyreactivity (PSR sort gate)” value is reported as “low polyreactivity”. Take “QVQLVESGGGLVQAGGSLRLSCAASGSTFLFNVMGWYRQAPGKERELVAAITSGASTYYADSVKGRFTISRDNAKNTVYLQMNSLEPEDTAVYYCAVDYSFRYDYVQRYYYWGQGTQVTVSS”: the “polyreactivity (PSR sort gate)” value is reported as “high polyreactivity”. For “QVQLVESGGGLVQAGGSLRLSCAASGSTFLFYAMGWYRQAPGKEREFVDAISWSGGSTFYADSVKGRFTISRYNAKNTVYLQMNSLKPEDTAVYYCAARQDGYSGRKLYYLGQGTQVTVSS”, the “polyreactivity (PSR sort gate)” value is reported as “low polyreactivity”. On to “QVQLVESGGGLVQAGGSLRLSCAASGSTFLGNDMGWYRQEPGKERELVASINSATSTTYADSVKGRFTISRDNAKNTVYLQMNSLKPEDTAVYYCAARYYRPLDYWGQGTQVTVSS”, for which the “polyreactivity (PSR sort gate)” value is “low polyreactivity”. The value for “QVQLVESGGGLVQAGGSLRLSCAASGSTFLINAMGWYRQAPGKERELVAAITASGGSTYADSVKGRFTISRDNAKNTVYLQMNSLKPEDTAVYYCAARYFPRHRYYYWGQGTQVTVSS” was “high polyreactivity”; that for “QVQLVESGGGLVQAGGSLRLSCAASGSTFLITALGWYRQAPGKEREFVADISSSDGSTYYADSVKGRFTISRDNAKNTVYLQMNSLKPEDTAVYYCAAAHVEGSYHKYYYWGQGTQVTVSS” was “high polyreactivity”. “QVQLVESGGGLVQAGGSLRLSCAASGSTFLNYAMGWYRQAPGKERELVAAISGRGGRTYYADSVKGRFTISRDNAKNTVYLQMNSLKPEDTAVYYCARRVRFPGGTFYYWGQGTQVTVSS”: the “polyreactivity (PSR sort gate)” value was “high polyreactivity”. The value for “QVQLVESGGGLVQAGGSLRLSCAASGSTFLNYVMGWYRQAPGKERELVATINSGDSTNYADSVKGRFTISRDNAKNTVYLQMNSLKPEDTAVYYCAAEGNYWVDYWGQGTQVTVSS” was “low polyreactivity”; that for “QVQLVESGGGLVQAGGSLRLSCAASGSTFLNYVMGWYRQAPGKERELVATINSGDSTTYADSVKGRFTISRDNAKNTVYLQMNSLKPEDTAVYYCNADPYYYSTYWSVKYDYWGQGTQVTVSS” was “low polyreactivity”. With “QVQLVESGGGLVQAGGSLRLSCAASGSTFLRYAMGWYIQAPGKERELVATISTSRGSTHYADSVKGRFTISRYNAKNTVYLQMNSLKPEDSAVYYCATRGGKWYYRTRQPYPYAMDYWGQGTQVTVSS”, the “polyreactivity (PSR sort gate)” value is given as “high polyreactivity”. The entry for “QVQLVESGGGLVQAGGSLRLSCAASGSTFLRYVMGWYRQAPGKERELVAAIDSGGSTHYADSVKGRFTISRDNAKNTVYLQMNSLKPEDTAVYYCNVDVSSDDWYPSTADFDYWGQGTQVTVSS” is “high polyreactivity”; for “QVQLVESGGGLVQAGGSLRLSCAASGSTFLSNAMGWYRQAPGKERELVAGITSGTSTYYADSVKGRFTISRDNAKYTVYLQMNSLKPEDTAVYYCNADDAEVLYQYVEYDYWGQGTQVTVSS” it is “low polyreactivity”; for “QVQLVESGGGLVQAGGSLRLSCAASGSTFLSYAMGWYRQAPGKERELVAAISWSDVNTYYADSVKGRFTISRDNAKNTVYLQMNSLKPEDTAVYYCNARYYLYWGQGTQVTVSS” it is “low polyreactivity”.
